Measurements published in the supplement of paper PMC12042874.
± gives the uncertainty stated by the source.

Assay: amyloid nucleation score (Sup35N fusion, yeast selection) (log enrichment); library NNK1; higher = more nucleation; inactive = no reads after selection
In short: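 After 24 hours of induction with 100 μM copper sulfate, psi-negative yeast expressing peptides of 20 random codons fused to Sup35N were grown for 7 days at 30°C on medium lacking adenine and uracil. Input and output plasmid inserts were sequenced with Illumina, and sequences with under 100 input reads were discarded. Scores for nucleation are the DiMSum log enrichment of output over input reads, centred on the mode score of non-aggregating sequences.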

**Q.** With WAAFLVMDGWICDQAYMTMR as the substance, how does the amyloid nucleation score read?
**A.** The amyloid nucleation score was “inactive”.

**Q.** Which amyloid nucleation score does the source give for WADTPRQLGCSSSSTISCSL here?
**A.** The amyloid nucleation score was -0.216 ± 0.4.

**Q.** With WAYYCYP as the substance, how does the amyloid nucleation score read?
**A.** The amyloid nucleation score was -2.01 ± 2.4.

**Q.** Which amyloid nucleation score does the source give for WCHGHYHSSNEMSTI here?
**A.** Its amyloid nucleation score is 1.37 ± 0.69.

**Q.** Which amyloid nucleation score does the source give for WCNRHHDWVVLLAIVAGGEV here?
**A.** The amyloid nucleation score was 0.873 ± 0.64.

**Q.** With WCRRWFLLYWVCAETKFGSG as the substance, how does the amyloid nucleation score read?
**A.** The amyloid nucleation score was -0.367 ± 0.52.

**Q.** With WCYFVRDGVGVGEVTCPRQR as the substance, how does the amyloid nucleation score read?
**A.** The amyloid nucleation score was 0.273 ± 0.54.

**Q.** For WDAGVFWKMYLSTCRTSI, which amyloid nucleation score is on record?
**A.** Its amyloid nucleation score is 0.949 ± 0.54.

**Q.** With WDLLLWSVNRDRRV as the substance, how does the amyloid nucleation score read?
**A.** Its amyloid nucleation score is 1.47 ± 0.55.

**Q.** With WDMAFSVALGLRYMRCGLKL as the substance, how does the amyloid nucleation score read?
**A.** The amyloid nucleation score was -0.286 ± 0.35.

**Q.** With WDWHIGRKWV as the substance, how does the amyloid nucleation score read?
**A.** The amyloid nucleation score was -0.629 ± 0.62.

**Q.** With WEDSGVIFLMVCCSVYLGNL as the substance, how does the amyloid nucleation score read?
**A.** Its amyloid nucleation score is 2.66 ± 0.12.

**Q.** With WEGLQLLGS as the substance, how does the amyloid nucleation score read?
**A.** The amyloid nucleation score was -0.138 ± 0.91.

**Q.** Which amyloid nucleation score does the source give for WELMLTTH here?
**A.** Its amyloid nucleation score is 0.453 ± 0.33.

**Q.** Which amyloid nucleation score does the source give for WESEFYLGLELERVAGGSGG here?
**A.** The amyloid nucleation score was -1.03 ± 2.7.

**Q.** Which amyloid nucleation score does the source give for WETGIRMFVKCRR here?
**A.** The amyloid nucleation score was 0.906 ± 0.33.

**Q.** With WETVQLTGRVLFWAISYCKI as the substance, how does the amyloid nucleation score read?
**A.** The amyloid nucleation score was -0.178 ± 0.52.

**Q.** For WFAAHPYFNWDGGIRY, which amyloid nucleation score is on record?
**A.** Its amyloid nucleation score is -1.41 ± 2.7.

**Q.** For WFGLQYMSWVSIESYGQAAW, which amyloid nucleation score is on record?
**A.** The amyloid nucleation score was 0.875 ± 0.97.

**Q.** Which amyloid nucleation score does the source give for WFHSQVTQNYSVWLLSTNYS here?
**A.** The amyloid nucleation score was -0.091 ± 0.56.

**Q.** Which amyloid nucleation score does the source give for WFIPNKGTYREAYFLSCLGS here?
**A.** The amyloid nucleation score was -0.954 ± 1.3.

**Q.** With WFMVVSRNMFCV as the substance, how does the amyloid nucleation score read?
**A.** The amyloid nucleation score was 0.456 ± 1.1.

**Q.** With WFNWVCCNGNAWIKDRF as the substance, how does the amyloid nucleation score read?
**A.** Its amyloid nucleation score is 7.66 ± 0.054.

**Q.** With WFSWLVGEILCWCGGWVRSK as the substance, how does the amyloid nucleation score read?
**A.** Its amyloid nucleation score is 0.404 ± 0.51.

**Q.** With WFWYIYM as the substance, how does the amyloid nucleation score read?
**A.** The amyloid nucleation score was 1.54 ± 0.19.

**Q.** For WGCRV, which amyloid nucleation score is on record?
**A.** Its amyloid nucleation score is -0.451 ± 0.58.

**Q.** Which amyloid nucleation score does the source give for WGKYSD here?
**A.** The amyloid nucleation score was 0.343 ± 0.7.

**Q.** With WGLLLE as the substance, how does the amyloid nucleation score read?
**A.** Its amyloid nucleation score is 4.13 ± 0.094.

**Q.** Which amyloid nucleation score does the source give for WGNTRYGTAASVCVTEVKGS here?
**A.** The amyloid nucleation score was 0.048 ± 0.4.

**Q.** For WHAHFEFNMLGILCRHFCSL, which amyloid nucleation score is on record?
**A.** The amyloid nucleation score was 3.19 ± 0.16.

**Q.** For WHTCYHSWSASIVLAPVSTT, which amyloid nucleation score is on record?
**A.** Its amyloid nucleation score is -0.009 ± 0.39.

**Q.** With WIHIVYGFWSWVWGI as the substance, how does the amyloid nucleation score read?
**A.** Its amyloid nucleation score is -0.327 ± 0.47.

**Q.** For WIILFWHYFSKYFQPLIGRS, which amyloid nucleation score is on record?
**A.** The amyloid nucleation score was “inactive”.

**Q.** For WINFMSQWDPLGRQYVWHIQ, which amyloid nucleation score is on record?
**A.** The amyloid nucleation score was 1.81 ± 0.36.

**Q.** With WIPSFIQMDTVVRDTVNKEF as the substance, how does the amyloid nucleation score read?
**A.** Its amyloid nucleation score is 1.09 ± 0.74.

**Q.** For WIRDDVVMGGAECCLVLNQ, which amyloid nucleation score is on record?
**A.** The amyloid nucleation score was 1.24 ± 0.58.

**Q.** For WISKWHYGAQSSARSKYARI, which amyloid nucleation score is on record?
**A.** The amyloid nucleation score was 0.864 ± 0.47.

**Q.** For WKKGRMMIKSQSGGLSQVWG, which amyloid nucleation score is on record?
**A.** Its amyloid nucleation score is 1.05 ± 0.59.

**Q.** Which amyloid nucleation score does the source give for WLESLARDSCSRFIDLHEWG here?
**A.** Its amyloid nucleation score is -0.615 ± 1.5.

**Q.** For WLEYYYCMLHDELIS, which amyloid nucleation score is on record?
**A.** Its amyloid nucleation score is 0.109 ± 0.29.

**Q.** For WLLLNDSFSTRHLFMPRSKW, which amyloid nucleation score is on record?
**A.** The amyloid nucleation score was -0.381 ± 0.75.

**Q.** With WLRRCEGGKMSYSSLSTVES as the substance, how does the amyloid nucleation score read?
**A.** The amyloid nucleation score was -0.563 ± 0.45.

**Q.** Which amyloid nucleation score does the source give for WLSETAAWENTYRCLRILHG here?
**A.** Its amyloid nucleation score is -0.446 ± 0.4.

**Q.** Which amyloid nucleation score does the source give for WMLHMASGGTLCEEASVLVV here?
**A.** Its amyloid nucleation score is -0.148 ± 0.55.

**Q.** With WMNFWHLFSVFLLFSAICWF as the substance, how does the amyloid nucleation score read?
**A.** The amyloid nucleation score was -0.006 ± 0.61.

**Q.** Which amyloid nucleation score does the source give for WNCKLTMADGGSAKVAPLSS here?
**A.** Its amyloid nucleation score is 0.38 ± 0.32.

**Q.** Which amyloid nucleation score does the source give for WNRVWIMYGT here?
**A.** Its amyloid nucleation score is 1.57 ± 0.22.

**Q.** For WNYIEGASFSRMGEASNAPG, which amyloid nucleation score is on record?
**A.** Its amyloid nucleation score is -0.944 ± 1.2.

**Q.** For WPCKAFFSSAGLRYGVNLA, which amyloid nucleation score is on record?
**A.** Its amyloid nucleation score is -0.833 ± 0.9.

**Q.** For WPSKAQAVFTNTSTLNVSRF, which amyloid nucleation score is on record?
**A.** The amyloid nucleation score was “inactive”.

**Q.** Which amyloid nucleation score does the source give for WQTSSNGLSLKATCLTYKSF here?
**A.** The amyloid nucleation score was 0.016 ± 1.7.

**Q.** For WRAMAFVYLVASWSVGIRGR, which amyloid nucleation score is on record?
**A.** Its amyloid nucleation score is 0.07 ± 1.

**Q.** With WRFEYWFRGIHYCIYNYFC as the substance, how does the amyloid nucleation score read?
**A.** Its amyloid nucleation score is -0.011 ± 0.89.

**Q.** Which amyloid nucleation score does the source give for WRIMNHNVLLMLVRLGSILL here?
**A.** The amyloid nucleation score was 1.18 ± 0.28.

**Q.** Which amyloid nucleation score does the source give for WRMVAIWKNLD here?
**A.** The amyloid nucleation score was -0.013 ± 0.56.

**Q.** With WRMYMYVNNPSNKHWVRRAS as the substance, how does the amyloid nucleation score read?
**A.** The amyloid nucleation score was -0.488 ± 0.51.

**Q.** For WSCTSCFNYGLF, which amyloid nucleation score is on record?
**A.** The amyloid nucleation score was 7.178 ± 0.052.

**Q.** With WSGFFFAGLWVVLCVEGGAC as the substance, how does the amyloid nucleation score read?
**A.** The amyloid nucleation score was 0.192 ± 0.88.

**Q.** With WSGTDRMCSVMTYS as the substance, how does the amyloid nucleation score read?
**A.** Its amyloid nucleation score is -0.841 ± 0.51.

**Q.** Which amyloid nucleation score does the source give for WSHADILV here?
**A.** Its amyloid nucleation score is “inactive”.

**Q.** With WSKLYIAK as the substance, how does the amyloid nucleation score read?
**A.** Its amyloid nucleation score is -0.69 ± 0.41.

**Q.** Which amyloid nucleation score does the source give for WSLWLRRDFSR here?
**A.** The amyloid nucleation score was 0.76 ± 0.61.

**Q.** For WSPNNTISNGMTKVWASGRL, which amyloid nucleation score is on record?
**A.** The amyloid nucleation score was 0.78 ± 0.56.

**Q.** For WSRSLVLGPLEMAHTKAVQN, which amyloid nucleation score is on record?
**A.** The amyloid nucleation score was -0.658 ± 1.4.

**Q.** For WSSPQEQT, which amyloid nucleation score is on record?
**A.** Its amyloid nucleation score is -1.59 ± 1.5.

**Q.** For WSSTTNWMLRPFKCANRLGW, which amyloid nucleation score is on record?
**A.** Its amyloid nucleation score is -0.529 ± 1.3.

**Q.** With WSSWGGSTGVVRKREELCGR as the substance, how does the amyloid nucleation score read?
**A.** The amyloid nucleation score was -0.44 ± 0.5.

**Q.** For WSVSASQFRSVPRSPFALSQ, which amyloid nucleation score is on record?
**A.** Its amyloid nucleation score is -0.303 ± 0.26.

**Q.** For WSWRLPGPCLFFCAEEQLTK, which amyloid nucleation score is on record?
**A.** The amyloid nucleation score was 1.32 ± 0.84.

**Q.** Which amyloid nucleation score does the source give for WTTMFAFAF here?
**A.** The amyloid nucleation score was 1.42 ± 0.44.

**Q.** For WTYRQLKSAGKEHVYFLKVR, which amyloid nucleation score is on record?
**A.** The amyloid nucleation score was -0.031 ± 1.2.

**Q.** For WVNCLFIYWFCFDALPIIVE, which amyloid nucleation score is on record?
**A.** The amyloid nucleation score was -0.616 ± 0.4.

**Q.** For WVPMDVF, which amyloid nucleation score is on record?
**A.** The amyloid nucleation score was 1.61 ± 0.35.

**Q.** With WVQFLDMGAVMKIWLVKCFP as the substance, how does the amyloid nucleation score read?
**A.** Its amyloid nucleation score is -0.485 ± 1.1.

**Q.** With WVSMKVVGVKHSGLDWRIL as the substance, how does the amyloid nucleation score read?
**A.** Its amyloid nucleation score is 0.012 ± 0.52.

**Q.** For WVVVDTLVRTGGCCWGYWKT, which amyloid nucleation score is on record?
**A.** Its amyloid nucleation score is 1.91 ± 0.27.

**Q.** Which amyloid nucleation score does the source give for WVWDCFHDCVPYMGRTGLVA here?
**A.** Its amyloid nucleation score is -0.56 ± 0.93.

**Q.** Which amyloid nucleation score does the source give for WVWDGDIGGWNVKPFHRVRG here?
**A.** Its amyloid nucleation score is 0.121 ± 0.58.

**Q.** With WWDHVWGVR as the substance, how does the amyloid nucleation score read?
**A.** Its amyloid nucleation score is 0.31 ± 0.75.

**Q.** For WWFRK, which amyloid nucleation score is on record?
**A.** The amyloid nucleation score was 0.654 ± 1.1.

**Q.** Which amyloid nucleation score does the source give for WYAGFTGRFRSLFFIISIFG here?
**A.** Its amyloid nucleation score is -0.529 ± 1.

**Q.** Which amyloid nucleation score does the source give for WYGVFALMIGRSIFD here?
**A.** Its amyloid nucleation score is -0.027 ± 0.27.

**Q.** Which amyloid nucleation score does the source give for WYRYEPLVMTRQMSGVGPMR here?
**A.** Its amyloid nucleation score is 0.124 ± 0.33.

**Q.** With WYVLARGMYENTLVGSCSMV as the substance, how does the amyloid nucleation score read?
**A.** Its amyloid nucleation score is 6.13 ± 0.088.

**Q.** For YALRVSR, which amyloid nucleation score is on record?
**A.** The amyloid nucleation score was -0.346 ± 0.43.

**Q.** With YAPWGGKNSRYAGSVM as the substance, how does the amyloid nucleation score read?
**A.** Its amyloid nucleation score is 0.701 ± 0.33.
